According to PMC2169300, “Signal-Regulated Pre-mRNA Occupancy by the General Splicing Factor U2AF”:

Legend:
His-Sam68 [1] = molecular target: T1, His-Sam68 (mouse, UniProt Q60749 1-443); assay: EMSA; 25 and 50 ng protein; EMSA as described in cited ref [19]; buffer, salt, pH and temperature not given; details: protein: recombinant; tags: His (pQE-32); chain copies: 2
His-Sam68 [2] = molecular target: T1, His-Sam68; assay: EMSA; dose-dependent; EMSA as described in cited ref [19]; buffer, salt, pH and temperature not given; details: protein: recombinant; tags: His (pQE-32); chain copies: 2

T1 sequence (Q60749 whole entry): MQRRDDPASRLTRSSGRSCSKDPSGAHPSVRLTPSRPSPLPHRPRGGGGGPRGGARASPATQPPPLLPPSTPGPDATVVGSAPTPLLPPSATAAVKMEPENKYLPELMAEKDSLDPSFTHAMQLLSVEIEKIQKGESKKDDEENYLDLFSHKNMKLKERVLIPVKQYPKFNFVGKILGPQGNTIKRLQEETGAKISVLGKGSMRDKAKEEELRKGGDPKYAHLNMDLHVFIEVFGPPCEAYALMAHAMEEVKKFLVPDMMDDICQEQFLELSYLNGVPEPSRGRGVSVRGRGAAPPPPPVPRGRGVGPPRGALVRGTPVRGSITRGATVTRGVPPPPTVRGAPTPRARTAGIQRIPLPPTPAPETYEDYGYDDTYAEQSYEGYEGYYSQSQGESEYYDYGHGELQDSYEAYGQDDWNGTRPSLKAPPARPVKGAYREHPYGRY

Row | Binder | binding result (His-Sam68 [1]) | binding result (His-Sam68 [2])
1 | AUAGACAGAAUCAGCACCAGUGCUCAUGGAGAAAAUUGGACC (ssRNA) [CD44 v5 exonic Sam68 site RNA] | binds | 
2 | GAAGAAGAGGAUUAUUAAAGACUAUUUGAUUAGA (ssRNA) [CD44 intronic Sam68 site RNA (wt)] |  | binds
